Experiments:
[1] = test system: dextran sodium sulfate induced colitis; assay: Prevention of DSS induced acute colitis, disease activity index (DAI); assay type: in vivo, Balb/c mice
Method: Colitis was induced in 8- to 10-week-old, female, Balb/c mice (Jackson Laboratories, Bar Harbor, Me.) by adding 5% DSS (Sigma Chemical Co., St. Louis, Mo.) (Dextran Sodiumsulfate (DSS) to their drinking water and allowing them to drink ad libitum. Groups of mice were treated either with 1 mg/kg BW (body weight) galectin-2 intraperitoneally or PBS 2 h before DSS administration. Mice were weighed and inspected for diarrhea and rectal bleeding. Seven days after induction of colitis by DSS, mice were killed, their entire colon was resected, and its length was measured and weighed. The disease activity index (DAI; i.e., the combined score of weight loss and bleeding) was determined according to a standard scoring system.
The disease activity index: Loss in bodyweight: 0=no loss; 1=5% to 10%; 2=10% to 15%; 3=15% to 20%; 4 ? 20%.
Hemoccult: 0=no blood; 2=positive; 4=gross blood.
In this experiment the DAI ranges from 0 to 8. The higher the DAI score the more severely the animal had been affected by colitis.
Colitis was induced in 8- to 10-week-old, female, Balb/c mice (Jackson Laboratories, Bar Harbor, Me.) by adding 5% DSS (Sigma Chemical Co., St. Louis, Mo.) (Dextran Sodiumsulfate (DSS) to their drinking water and allowing them to drink ad libitum. Groups of respectively 10 mice were treated either with Galectin-2 subcutaneously (s.c.) or intraperitoneally (i.p.) 2 h before DSS administration. In one trial with 10 mice the doses of Galectin-2 was doubled (administered i.p.) and compared to the treatment of 10 mice with Tacrolimus (FK506) (administered i.p.) in equal concentrations. In parallel a group of 10 mice was treated with 0.9% NaCl instead of Galectin-2 as control. Mice were weighed and inspected for diarrhea and rectal bleeding. 10 days after induction of colitis by DSS, mice were killed, their entire colon was resected, and its length was measured and weighed. The disease activity index (DAI; i.e., the combined score of weight loss and bleeding) was determined according to a standard scoring system.
The disease activity index: Loss in body weight: 0=no loss; 1=5% to 10%; 2=10% to 15%; 3=15% to 20%; 4 ? 20%.

caspase-9 = assay: Caspase activity by flow cytometry; assay type: cell-based, human; conditions: anti-CD3 activated PBT, 50 μg/ml, 24 h
Method: To measure caspase activity, 5×10^5 PBT were incubated in the presence or absence of 50 μg/ml galectin-2 together with derivates of the PE-labelled affinity purified anti-caspase-3 Ab (BD Pharmingen), the carboxyfluorescein-labelled caspase-8 inhibitor FAM-LETD-fmk or caspase-9 inhibitor FAM-LEHD-fmk (both from Biocharta, Hamburg, Germany), all binding irreversibly to activated caspase-3, -8 or -9, respectively. Cells were than analyzed by flow cytometry (FACS-Calibur, BD) and the increase of caspase activity determined after proper gating in correlation to untreated cells.

PBT = assay: Cytokine secretion (cytometric bead array); assay type: cell-based, human
Method: To determine cytokine secretion, PBT were cultured for 48 h with or without anti-CD3 mAb and incubated in the presence or absence of 0, 10, or 50 μg/ml Gal-2. The supernatant was then collected and cytokine secretion determined by a cytometric bead array, performed according to the manufacturer's instruction (BD Pharmingen). Briefly, six bead populations with distinct fluorescence intensities, coated with capture antibodies specific for TNF-α, IFN-γ, IL-10, IL-5, IL-4, and IL-2 proteins, were mixed with PE-conjugated detection anti-bodies and incubated with recombinant standards or test sample to form sandwich complexes. Following acquisition of sample data using flow cytometry, the cytokine concentrations were calculated using the BD CBA analysis software.

T cells (PBT, LPT) = assay: Adhesion assay to collagen type I and fibronectin; assay type: cell-based, human
Method: 96 well flat-bottom plates were precoated overnight at 4° C. with 12 μg/well fibronectin (Chemicon) in DPBS, 40 μg/well collagen type I (Sigma-Aldrich) in 0.1 M acetic acid, or 3% BSA (Sigma-Aldrich) in DPBS as a control and then washed three times with DPBS. Freshly isolated T cells were fluorescently-labelled with 5 μM calcein-AM (Molecular Probes, Eugene, Oreg.) for 30 min at 37° C. in 5% CO2 at 5×10^6 cells/ml in RPMI. The cells were then washed three times with RPMI containing 5% FCS. Calcein-labelled T cells were resuspended in RPMI and 5×10^5 T cells/well were added to 96-well plates containing purified ECM components or BSA for the indicated times. Saturating concentrations of integrin-blocking mAbs (predetermined by flow cytometry) were preincubated with T cells for 30 min at 37° C. before adding T cells to the wells for the adhesion assay. Nonadherent cells were removed by a standardized washing technique that was developed to minimize background binding, which includes both an orbital and a rocking motion repeated three times with RPMI. Adhesion was quantified with a multiwell fluorescent spectrophotometer (Tecan, Groedig, Austria). For each experimental group the results were expressed as the mean percentage±SD of bound T cells from triplicate wells.

B1: galectin-2: β-galactoside binding lectin, non-covalent dimer with subunits of about 14 kDa; recombinant human or rat (SEQ ID NO:1, 2) (protein)
chain: MAGELEVKNMDMKPGSTLKITGSIADGTDGFVINLGQGTDKLNLHFNPRFSESTIVCNSLDGSNWGQEQREDHLCFSPGSEVKFTVTFESDKFKVKLPDGHELTFPNRLGHSHLSYLSVRGGFNMSSFKLKE
DAI (disease activity index) ([1]; 1 mg/kg BW i.p. 2 h before DSS, seven days after induction, mean ± SD, DAI 0 to 8, control 6.3 ± 2.30): 4.5 ± 2.1,
DAI (disease activity index) ([1]; 1 mg/kg i.p., 10 days after induction, control 6.5 ± 0.3): 5.0 ± 0.7,
DAI (disease activity index) ([1]; 1 mg/kg s.c., 10 days after induction, control 6.5 ± 0.3): 5.8 ± 0.7,
DAI (disease activity index) ([1]; 2 mg/kg i.p., 10 days after induction, control 6.5 ± 0.3): 2.6 ± 0.6,
caspase-9 activity (caspase-9): significant increase
IFN-γ production (PBT; anti-CD3 activated T cells): downregulated significantly and dose-dependently
IL-2 secretion (PBT; anti-CD3 activated T cells): not influenced
IL-4 secretion (PBT; anti-CD3 activated T cells): not altered
IL-5 secretion (PBT; anti-CD3 activated T cells): increasing
IL-10 secretion (PBT; anti-CD3 activated T cells): increasing
TNF-α production (PBT; anti-CD3 activated T cells): downregulated significantly and dose-dependently
cytokine production of resting T cells (PBT; resting T cells): failed to modulate cytokine production of resting T cells
cells adhering to collagen type I (T cells (PBT, LPT); CD3 activated PBT, without galectin 22.1±3.5%): 15.1±5.6%
cells adhering to fibronectin (T cells (PBT, LPT); CD3 activated PBT, without galectin 26.3±5.6%): 39.8±4.9%
attachment to fibronectin (T cells (PBT, LPT); LPT): increasing
cell adhesion to collagen (T cells (PBT, LPT); LPT): inhibited

Source: patent publication US20080113907A1, “Uses Of Galectin-2” (Charite-Universitat-Smedizin Berlin, priority 2004, published 2008)
